{"source": "patent US20190099470", "target": "T1, Mouse MAVS, endogenous, on mitochondria of wild-type MEFs and BMDCs (UniProt Q8VCF0)", "T1 sequence": "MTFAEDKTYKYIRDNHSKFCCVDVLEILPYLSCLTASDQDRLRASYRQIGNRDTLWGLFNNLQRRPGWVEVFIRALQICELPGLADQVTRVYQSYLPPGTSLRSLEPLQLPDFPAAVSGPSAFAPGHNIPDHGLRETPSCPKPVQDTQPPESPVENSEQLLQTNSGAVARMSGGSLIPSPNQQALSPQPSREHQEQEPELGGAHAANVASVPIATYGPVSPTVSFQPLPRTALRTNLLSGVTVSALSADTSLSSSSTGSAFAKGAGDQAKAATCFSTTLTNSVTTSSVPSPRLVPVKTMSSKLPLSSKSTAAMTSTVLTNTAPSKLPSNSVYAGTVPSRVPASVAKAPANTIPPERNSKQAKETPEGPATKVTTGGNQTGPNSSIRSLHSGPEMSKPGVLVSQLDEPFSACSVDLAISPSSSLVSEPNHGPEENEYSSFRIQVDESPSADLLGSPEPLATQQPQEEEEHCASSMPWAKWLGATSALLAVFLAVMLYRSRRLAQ"}
{"substance": "Coxsackievirus B3 (CVB3) 3C^pro protease", "values": [{"measurement": "MAVS cleavage in CVB3-infected MEFs (immunoblotting), 3 h post-infection", "value": "the CVB3 3C^pro protease had produced only a small amount of cleaved MAVS"}, {"measurement": "MAVS cleavage in CVB3-infected MEFs (immunoblotting), 24 h post-infection", "value": "CVB3 3C^pro had significantly cleaved MAVS"}]}
